This is an account of results in patent US20110126301A1 (WALTER AND ELIZA HALL INSTITUTE OF MEDICAL RESEARCH, published 2011).

Experiment [1] addresses T1, human 5B6 (CLEC9A), membrane bound (human, UniProt Q6UXN8 1-241).
T1 construct: Full length on transfectant cells or native on human blood BDCA-3+ DC; also called h5B6; HEEE9341
Nature of the experiment: flow cytometry on transiently transfected 293T cells; anti-FLAG 9H10-biotin and streptavidin-PE. From the text:
To identify binding partners for the 5B6 molecule, the inventors generated soluble FLAG-tagged m5B6 and h5B6 which encompassed the ectodomain of 5B6 including the stalk region and the C-type lectin-like domain (CTLD), denoted in FIG. 11A as “Original (with stalk)”. A soluble FLAG-tagged ectodomain version of the C-type lectin Cire was also generated as a control molecule. […] Thus, soluble 5B6 can interact with membrane bound 5B6 in a cross-species manner.
A general note: In flow cytometry, cells or beads pass a laser one at a time.

The target of experiment [2] is T1, human 5B6 (CLEC9A), membrane bound. Kind of experiment: flow cytometry on cells expressing 5B6.

T1 sequence (Q6UXN8 whole entry): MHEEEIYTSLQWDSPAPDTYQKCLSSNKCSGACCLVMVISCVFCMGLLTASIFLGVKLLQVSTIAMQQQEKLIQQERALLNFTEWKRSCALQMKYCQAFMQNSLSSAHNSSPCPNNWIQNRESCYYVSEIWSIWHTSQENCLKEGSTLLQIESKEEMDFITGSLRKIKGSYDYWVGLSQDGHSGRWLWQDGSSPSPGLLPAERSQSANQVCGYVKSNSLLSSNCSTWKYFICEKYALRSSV

B1: soluble FLAG-tagged human 5B6 including stalk (receptor)
chain: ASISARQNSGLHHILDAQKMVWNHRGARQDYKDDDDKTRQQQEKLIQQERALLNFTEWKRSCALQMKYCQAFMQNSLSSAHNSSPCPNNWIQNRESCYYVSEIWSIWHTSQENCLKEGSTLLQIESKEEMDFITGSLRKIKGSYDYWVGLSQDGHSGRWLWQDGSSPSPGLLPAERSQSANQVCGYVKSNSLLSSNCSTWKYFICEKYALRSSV
notes: also called soluble h5B6; soluble human 5B6
As for B1, the binding result in experiment [1] was “binds”.

B2: soluble FLAG-tagged mouse 5B6 including stalk (receptor)
chain: ASISARQNSGLHHILDAQKMVWNHRGARQDYKDDDDKTREQQERLIQQDTALVNLTQWQRKYTLEYCQALLQRSLHSGTDASTGPVLLTSPQMVPQTLDSKETGSDCSPCPHNWIQNGKSCYYVFERWEMWNISKKSCLKEGASLFQIDSKEEMEFISSIGKLKGGNKYWVGVFQDGISGSWFWEDGSSPLSDLLPAERQRSAGQICGYLKDSTLISDKCDSWKYFICEKKAFGSCI
notes: also called soluble m5B6; soluble mouse 5B6
Turning to B2, the binding result in experiment [1] is on record as “binds”.

B3: rat mAb 24/04-10B4 (anti-5B6 / anti-Clec9A antibody) (antibody, V domains shown)
VH: AVQIVESGGGLVQPKESLKISCTASGFTFSNAAIYWVRQTPGKGLEWVGRIRTRPSKYATDYADSVRGRFTISRDDSKSMVYLQMDNLRTEDTAMYYCTPRATEDVPFYWGQGVMVTVSS
VL: DIVMTQTPSSQAVSAGEKVTMNCKSSQSVLYDENKKNYLAWYQQKSGQSPKLLIYWASTGESGVPDRFIGSGSGTDFTLTISSVQAEDLAVYYCQQYYDFPPTFGGGTKLELKR
notes: Rat IgG2a, kappa, from hybridoma 24/04-10B4 (peptide immunisation); Used biotinylated or APC-conjugated in flow cytometry; also called anti-m5B6 mAb; anti-5B6 mAb
Consider B3, for which the binding result in experiment [2] is “binds”.
